In assay [1] the target is T1, human CD3 epsilon subunit (CD3e), as cell surface CD3 on Jurkat cells and on naive human T cells (human, UniProt P07766 23-207). Description: cell-based or functional assay.
The target of assay [2] is T2, CD3ed (CD3 epsilon/delta fusion protein) (human).
T2 construct: Expressed in HEK293 and purified on His60 resin and by SEC; also called soluble human CD3ed antigen; hCD3ed
T2 chain: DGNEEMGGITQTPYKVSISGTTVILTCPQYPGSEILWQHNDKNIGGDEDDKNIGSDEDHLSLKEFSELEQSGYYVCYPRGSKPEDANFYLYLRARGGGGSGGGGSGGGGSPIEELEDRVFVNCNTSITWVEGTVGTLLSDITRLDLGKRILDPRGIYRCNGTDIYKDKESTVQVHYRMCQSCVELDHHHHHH
The assay is described as follows: SPR, recombinant human CD3. In general terms: SPR reads the build-up and loss of mass on a sensor chip optically.

Assay [3] addresses T1, human CD3 epsilon subunit (CD3e), as …. The assay is described as follows: flow cytometry titration on naive human T cells (PE-A Geo Mean against Ab in nM); Kd printed beside the legend. (In general: Flow cytometry measures light scatter and fluorescence of single cells or particles in a stream.)
The target is the same in assay [4]. The assay is described as follows: flow cytometry, cell surface binding to human CD3 on naive human T cells. From the text: Purified CD3 bispecific antibodies were titrated for cell surface binding to human CD3 on naïve human T cells purified from fresh human peripheral blood mononuclear cells (PBMCs), using the standard flow cytometry methods known in the art using BD LSRII Fortessa analyzer.

For assay [5] the target is unchanged. Description: FACS on Jurkat cells expressing CD3, monovalent IgG. As for the experimental part: All the mutants were generated as monovalent IgG antibodies using standard transient HEK293 expression followed by purification using Protein A column. The resulting clones were tested for binding to Jurkat cells expressing CD3 using FACS and self-association potential using AC-SINS as described above in Example 7. As shown in Table 16, five molecules with improved epivax score and reduced T-cell epitopes and retained affinity to CD3 were chosen to move forward and test in diabody-Fc format. The 2B5v6 variants with improved epivax scores were compared to the parental 2B5v6.
Target sequence in this assay (P07766 23-207 limits assumed): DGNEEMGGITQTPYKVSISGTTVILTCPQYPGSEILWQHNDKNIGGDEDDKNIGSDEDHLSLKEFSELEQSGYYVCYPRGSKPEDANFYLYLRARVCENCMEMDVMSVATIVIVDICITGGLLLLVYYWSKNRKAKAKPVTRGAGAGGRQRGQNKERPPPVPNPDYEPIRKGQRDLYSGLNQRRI

The target is the same in assay [6]. Description: FACS on Jurkat cells expressing CD3.

Substitutions are numbered along the chain they refer to.

B1: GUCY2C-1679 bispecific antibody (bispecific antibody)
chain 1: DIQLTQSPSSLSASVGDRVTITCRASESVDYYGSSLLQWYQQKPGKAPKLLIYAASKLASGVPSRFSGSGSGTDFTLTISSLQPEDFATYYCQQTRKAYTFGQGTKLEIKGGGSGGGGEVQLVESGGGLVQPGGSLRLSCAASGFTFSDYYMTWVRQAPGKGLEWVAFIRNQARGYTSDHNPSVKGRFTISRDNAKNSLYLQMNSLRAEDTAVYYCARDRPSYYVLDYWGQGTTVTVSSGCPPCPAPEAAGAPSVFLFPPKPKDTLMISRTPEVTCVVVDVSHEDPEVKFNWYVDGVEVHNAKTKPREEQYNSTYRVVSVLTVLHQDWLNGKEYKCKVSNKALPAPIEKTISKAKGQPREPQVCTLPPSREEMTKNQVSLWCLVKGFYPSDIAVEWESNGQPENNYKTTPPVLDSDGSFFLYSKLTVDKSRWQQGNVFSCSVMHEALHNHYTQKSLSLSPG
chain 2: DIQMTQSPSSLSASVGDRVTITCTSSQSLFNVRSGKNYLAWYQQKPGKAPKLLIYWASDRESGVPSRFSGSGSGTDFTLTISSLQPEDFATYYCKQSYDLFTFGGGTKVEIKGGGGSGGGGEVQLVESGGGLVQPGGSLRLSCAASGFTFSSYWMHWVRQAPGKGLEWIGEIKPSNELTNVHEKFKDRFTISVDKAKNSAYLQMNSLRAEDTAVYYCTRTITTTEGYWFFDVWGQGTLVTVSSGCPPCPAPEAAGAPSVFLFPPKPKDTLMISRTPEVTCVVVDVSHEDPEVKFNWYVDGVEVHNAKTKPREEQYNSTYRVVSVLTVLHQDWLNGKEYKCKVSNKALPAPIEKTISKAKGQPREPQVYTLPPCREEMTKNQVSLSCAVKGFYPSDIAVEWESNGQPENNYKTTPPVLDSDGSFFLVSKLTVDKSRWQQGNVFSCSVMHEALHNHYTQKSLSLSPG
notes: Bispecific diabody-Fc; also called GUCY2c bispecific with CD3 variant 2B5-1040
Turning to B1, in assay [1], the “In vitro Cytotoxicity” value turned out to be 0.194 nM. Also, in assay [2], the Kd (commonly the constant that tells how readily two partners part at equilibrium) was 72 nM.

B2: GUCY2c-2B5 bispecific antibody (bispecific antibody, human IgG1)
chain 1: B1 chain 1 with S34T, L37M, A47P, K57N, L58V, A59E, A98V, Q172R
chain 2: DIQMTQSPSSLSASVGDRVTITCTSSQSLFNVRSRKNYLAWYQQKPGKAPKLLIYWASTRESGVPSRFSGSGSGTDFTLTISSLQPEDFATYYCKQSYDLFTFGGGTKVEIKGGGSGGGGEVQLVESGGGLVQPGGSLRLSCAASGYTFTSYWMHWVRQAPGKGLEWIGEIKPSNGLTNYIEKFKNRFTISVDKAKNSAYLQMNSLRAEDTAVYYCTRTITTTEGYWFFDVWGQGTLVTVSSGCPPCPAPEAAGAPSVFLFPPKPKDTLMISRTPEVTCVVVDVSHEDPEVKFNWYVDGVEVHNAKTKPREEQYNSTYRVVSVLTVLHQDWLNGKEYKCKVSNKALPAPIEKTISKAKGQPREPQVYTLPPCREEMTKNQVSLSCAVKGFYPSDIAVEWESNGQPENNYKTTPPVLDSDGSFFLVSKLTVDKSRWQQGNVFSCSVMHEALHNHYTQKSLSLSPG
notes: Bispecific diabody-Fc (knob-in-hole, effector null human IgG1 Fc); also called GUCY2c-0250
As to B2, the Kd in assay [3] stood at 13.2 nM.

B3: GUCY2c-H2B4 bispecific antibody (bispecific antibody, human IgG1)
chain 1: B1 chain 1 with S34T, L37M, A47P, K57N, L58V, A59E, A98V, Q172R
chain 2: DIVMTQSPDSLAVSLGERATINCKSSQSLFNVRSRKNYLAWYQQKPGQPPKLLISWASTRESGVPDRFSGSGSGTDFTLTISSLQAEDVAVYYCKQSYDLFTFGSGTKLEIKGGGSGGGGEVQLVESGGGLVQPGGSLRLSCAASGYTFTSYWMHWVRQAPGKGLEWIGEIKPSNGLTNYIEKFKNRFTISVDKAKNSAYLQMNSLRAEDTAVYYCTRTITTTEGYWFFDVWGQGTLVTVSSGCPPCPAPEAAGAPSVFLFPPKPKDTLMISRTPEVTCVVVDVSHEDPEVKFNWYVDGVEVHNAKTKPREEQYNSTYRVVSVLTVLHQDWLNGKEYKCKVSNKALPAPIEKTISKAKGQPREPQVYTLPPCREEMTKNQVSLSCAVKGFYPSDIAVEWESNGQPENNYKTTPPVLDSDGSFFLVSKLTVDKSRWQQGNVFSCSVMHEALHNHYTQKSLSLSPG
notes: Bispecific diabody-Fc (knob-in-hole, effector null human IgG1 Fc)
B3: the Kd in assay [3] is 8.18 nM.

B4: GUCY2C-1678 bispecific antibody (bispecific antibody)
chain 1: B1 chain 1
chain 2: B1 chain 2 with S26D
notes: Bispecific diabody-Fc; also called GUCY2c bispecific with CD3 variant 2B5-1038
As for B4, the “In vitro Cytotoxicity” value in assay [1] was 0.247 nM. Also, in assay [2], the Kd is 63.5 nM.

B5: GUCY2C-1608 (GUCY2c-2B5v6) bispecific antibody (bispecific antibody)
chain 1: B1 chain 1
chain 2: B1 chain 2 with G35Q, D59T
notes: Bispecific diabody-Fc
Consider B5, for which, in assay [1], the “In vitro Cytotoxicity” value is 0.772 nM. For the same molecule, in assay [2], the Kd was determined as 128 nM. For the same molecule, the EC50 (commonly the midpoint of the concentration-response curve) in assay [4] is 35.4 nM.

B6: GUCY2C-1680 bispecific antibody (bispecific antibody)
chain 1: B1 chain 1
chain 2: B1 chain 2 with Q27E
notes: Bispecific diabody-Fc; also called GUCY2c bispecific with CD3 variant 2B5-1039
Consider B6, for which the “In vitro Cytotoxicity” value in assay [1] was 0.385 nM. Further, the Kd in assay [2] is 78.6 nM.

B7: 2B5v6-0517 (antibody, V domains shown)
VH: EVQLVESGGGLVQPGGSLRLSCAASGFTFSDYYMTWVRQAPGKGLEWVAFIRNQARGYTSDHQPSVKGRFTISRDNAKNSLYLQMNSLRAEDTAVYYCARDRPSYYVLDYWGQGTTVTVSS
VL: DIQMTQSPSSLSASVGDRVTITCTSSQSLFNVRSGKNYLAWYQQKPGKAPKLLIYWASTRESGVPSRFSGSGSGTDFTLTISSLQPEDFATYYCKQSYDLFTFGGGTKVEIK
notes: Tested as a monovalent IgG; also called 2B5-0517
B7 came in with an EC50 in assay [5] of 9.9 nM.

B8: 2B5-0006 (2B5v6) (antibody, V domains shown)
VH: B7 VH with Q63N
VL: B7 VL with G35Q
notes: also called h2B5v6; parental 2B5v6
For the molecule B8, the EC50 in assay [6] came to 9.8 nM.

B9: 2B5v6-0538 (antibody, V domains shown)
VH: B7 VH with Q63N
VL: B7 VL with G35Q, T59D
notes: Tested as a monovalent IgG; also called 2B5-0538
B9: the midpoint of the response in assay [5], the EC50, lay at 9.2 nM.

B10: 2B5v6-0533 (antibody, V domains shown)
VH: B7 VH with Q63N
VL: B7 VL
notes: Tested as a monovalent IgG; also called 2B5-0533
B10: in assay [5], the concentration giving a half-maximal response (EC50) stood at 6.1 nM.

B11: 2B5v6-0522 (antibody, V domains shown)
VH: B7 VH
VL: B7 VL with G35Q, T59D
notes: Tested as a monovalent IgG; also called 2B5-0522
For B11, the midpoint of the response in assay [5], the EC50, lay at 8.6 nM.

Source of the values: patent publication US20190382486A1 (Pfizer, published 2019).
